This note sets out measurements from PMC6508825, “Rice plants have three homologs of glutathione synthetase genes, one of which, OsGS2, codes for hydroxymethyl‐glutathione synthetase” (Plant Direct, 2019).

Holding throughout (conditions): 1 mmol/L gamma-glutamylcysteine, 2 mmol/L ATP, 20 mmol/L MgCl2, 50 mmol/L KCl, 1 mmol/L DTT, Tris-HCl pH 8.0, 30 °C, apparent, 0.2-10 mmol/L amino acid
Substrate in data set [1]: NCC(=O)O
Description: HPLC with fluorescence detection of monobromobimane-derivatized thiol peptide product, Michaelis-Menten fit. It is filed as biochemical, Oryza sativa. The text has this:
HPLC with fluorescence detection of monobromobimane-derivatized thiol peptide product, Michaelis-Menten fit on MBP-OsGS2

Substrate in the data set “purified protein”: N[C@@H](CO)C(=O)O
Briefly: purified protein.

Substrate in data set [2]: NCC(=O)O
Briefly: HPLC with fluorescence detection of monobromobimane-derivatized thiol peptide product, Michaelis-Menten fit. It is filed as biochemical, Oryza sativa. The text has this:
HPLC with fluorescence detection of monobromobimane-derivatized thiol peptide product, Michaelis-Menten fit on MBP-OsGS3
This is another data set of the same source.

Substrate in data set [3]: NCC(=O)O
Described as above. It is filed as biochemical, Oryza sativa. From the text:
HPLC with fluorescence detection of monobromobimane-derivatized thiol peptide product, Michaelis-Menten fit on MBP-OsGS1
The source holds these as a separate data set.

B1: MBP-OsGS2 (Oryza sativa Japonica Group) (protein)
chain: MAAAAARSGAHPPSFASSLGRCRVLPVVVVRRPGGAARPSPLLAPARCAAAVGTAAPKVEGGGRRSSEQGQLAVAPARLVDELVEEALVWSSQHGLVVGDKNHPRSGKAPGVGLLHAPFALLPMSFSKVYWDQAVELAPLFNELVDRVSLDGDFLQETLARTKEVDSFTGRLLDIHAKMMKLNKKEDVRLGLTRSDYMIDGATDQLLQVELNTISTSSNGLACGVCELHRNLIRQHERELGLDPESVVGNTAIAQHAEALAGAWAEFNNQSSVVLVVVQPEERYMYDQYWITVALREMYGVTTIRKTMAAIDAEGELRPDGTLTIDGLPVAVVYFRAGYTPNDYPSEAEWRARLLIECSSAIKCPSIAHHLVGTKKIQQELAKENVLERFLDNKADIEKVRKCFAGLWSLENDSIVMSAIESPELFVLKPQREGGGNNIYGDNLRETLISLKKDGSNELAAYILMQRIFPPASLCYLVRDGTCIRENAVSEFGIFGAYLRNKDRVIINDQCGYLMRTKAASLNEGGVVAGYAFLNSVFLT
notes: full-length ORF, MBP fusion (pMAL-c5X), expressed in E. coli NEB Express, amylose resin purified; MBP kept
Usually Km stands for the substrate concentration at which the rate is half of its maximum. As usually defined, the Vmax is the top rate of the reaction or transport when substrate is in excess. As for B1, in data set [1], the Km was determined as 19300 ± 1100 µM and the maximal velocity (Vmax) was 0.459 µmol/min/mg. Besides, in the data set “purified protein”, the Km was 2640 ± 50 µM and the Vmax turned out to be 0.524 µmol/min/mg.

B2: MBP-OsGS3 (Oryza sativa Japonica Group) (protein)
chain: MSAAAEGRPPAAAAAGEMVREATAWCALHGLVVGDRADPRSGTVPGVGLVHAPFSLLPTHLPESHWRQACELAPIFNELVDRVSLDGDFLQDSLSKTKQVDDFTSRLLEIHRKMMEINKEENIRLGLHRSDYMLDSETNSLLQIELNTISASFPGLGSLVSELHRTLIDQYGHLFCLDSKRVPGNEASSQFAKALARAWDEFNVDSAVIMMIVQPEERNMYDQYWLAKHLKESHGITTIRKTLSEVEAEGHVLPDGTLVIDGKTVSVVYFRAGYTPNDYPSEAEWAARLLLEQSSAVKCPSISYHLVGTKKIQQELARPNVLERFLENKEEITKIRKCFAGLWSLDDEEIVKSAIQKPELFVLKPQREGGGNNIYGIDVRETLIRLQKEGGDALAAYILMQRIFPKASLSNLVRGGVCHEALTISELGIYGAYLRNNDKVVMNEQSGYLMRTKVSSSDEGGVAAGFAVLDSLYLTDKAM
notes: MBP kept
B2: in data set [2], the Km was determined as 408 ± 5 µM and the Vmax worked out at 6.6 µmol/min/mg.

B3: MBP-OsGS1 (Oryza sativa Japonica Group) (protein)
chain: MSSYVTTPHHHHHHGCCSGSRRLQAPAPPARPRLVVAAAARHVALPPRRAVASRAMSAEAPLGVAPAAAEEEMAAVVDEMAEEAAVWCAVHGLVVGDRAEPRSGTIPGVGLVHAPFALLPTRFPASFWKQARELAPIFNDLVDRVSLDGEFLQDSLSRTRQVDDFTSRLLDIHAKMMEVNKEEDIRLGLHRSDYMLDSGTNSLLQIELNTISSSFPGLSSLVSELHRTLLNRHGKVLGLDSKRIPQNWAATQFAEALSMAWTEFNNKSAVIMMVVQPEERNMYDQYWLINHLKESHGVKTIRKTLAQVEAEGQVLPDGTLVVDGQTVSVVYFRAGYSPNDYPSEAEWRARLLMEQSSAIKCPSISYHLVGTKKIQQELAKPNILERFLNNKEDIAKLRKCFAGLWSLDNEEIVKTAIEKPDLFVLKPQREGGGNNIYGYDLRETLVRLQKEQGEALAAYILMQRIFPRASLTHLVQGGVCFEDLTISELGIFGAYLRNKDKVVLNNQCGYLMRTKVSSSNEGGVAAGFAVLDSILLTDEW
notes: as for B1
Consider B3, for which, in data set [3], the Michaelis-Menten constant (Km) stood at 1280 ± 100 µM and the Vmax is 0.759 µmol/min/mg.
